Reference: PMC3905715 (Nature Communications, 2013)
Numbering of substitutions follows the chain as printed. Numbers in names are those of the source. Values belong to the molecule of their own block, whether it stands above or below them.

T1: human LGR5 ectodomain (hLGR5ecto, R32-G557), immobilised for SPR (human, UniProt O75473 32-557)
T1 chain: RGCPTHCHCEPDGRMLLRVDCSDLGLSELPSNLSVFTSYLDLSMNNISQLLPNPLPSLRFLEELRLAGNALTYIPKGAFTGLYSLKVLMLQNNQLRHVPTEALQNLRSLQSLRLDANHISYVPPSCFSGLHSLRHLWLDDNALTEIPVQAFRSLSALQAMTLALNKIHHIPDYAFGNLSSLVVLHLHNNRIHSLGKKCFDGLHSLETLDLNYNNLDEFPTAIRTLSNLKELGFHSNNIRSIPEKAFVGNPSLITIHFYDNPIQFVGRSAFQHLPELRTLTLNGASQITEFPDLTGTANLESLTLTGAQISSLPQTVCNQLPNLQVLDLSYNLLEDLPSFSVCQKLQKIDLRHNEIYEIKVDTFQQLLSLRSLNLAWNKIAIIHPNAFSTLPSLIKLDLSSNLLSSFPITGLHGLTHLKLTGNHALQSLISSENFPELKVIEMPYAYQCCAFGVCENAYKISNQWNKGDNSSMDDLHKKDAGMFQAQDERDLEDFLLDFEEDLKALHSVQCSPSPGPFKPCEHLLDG

T2: mZNRF3ecto M98T (Mus musculus)
T2 chain: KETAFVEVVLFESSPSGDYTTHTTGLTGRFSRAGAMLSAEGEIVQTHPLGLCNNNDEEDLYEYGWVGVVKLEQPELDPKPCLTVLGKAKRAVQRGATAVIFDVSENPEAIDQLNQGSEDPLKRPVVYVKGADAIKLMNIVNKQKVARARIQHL

T3: human LGR5 ectodomain (hLGR5ecto, R32-G557), immobilised for SPR (human, UniProt O75473 32-557)
T3 construct: LGR5 ectodomain, human, residues R32-G557; the methods describe biotinylated variants on streptavidin
T3 sequence (looked up): T1 chain

T4: mouse Rspo2 Fu1–Fu2 (mRspo2Fu1–Fu2, N37 or I39-G144), His10
T4 chain: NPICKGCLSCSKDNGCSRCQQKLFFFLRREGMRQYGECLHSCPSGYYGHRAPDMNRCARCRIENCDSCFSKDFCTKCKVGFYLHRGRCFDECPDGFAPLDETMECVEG

T5: preformed hLGR5ecto,lr × mRspo2 Fu1–Fu2 complex, O75473
T5 chain 1: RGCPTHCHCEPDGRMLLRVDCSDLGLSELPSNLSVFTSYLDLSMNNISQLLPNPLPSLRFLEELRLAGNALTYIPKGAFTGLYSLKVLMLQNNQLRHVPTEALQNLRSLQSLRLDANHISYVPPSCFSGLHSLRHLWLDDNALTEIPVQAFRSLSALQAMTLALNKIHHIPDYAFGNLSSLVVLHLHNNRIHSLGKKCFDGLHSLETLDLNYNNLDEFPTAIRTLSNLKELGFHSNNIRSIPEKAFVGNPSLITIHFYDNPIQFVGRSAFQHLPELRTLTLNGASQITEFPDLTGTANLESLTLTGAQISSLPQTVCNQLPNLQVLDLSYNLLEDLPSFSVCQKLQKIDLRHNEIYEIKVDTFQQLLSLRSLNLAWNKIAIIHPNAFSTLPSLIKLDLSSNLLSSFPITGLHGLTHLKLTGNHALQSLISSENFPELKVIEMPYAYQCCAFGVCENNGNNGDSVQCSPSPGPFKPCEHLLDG
T5 chain 2: T4 chain

T6: hRSPO1 (Homo sapiens (Human), UniProt Q2MKA7)
T6 chain: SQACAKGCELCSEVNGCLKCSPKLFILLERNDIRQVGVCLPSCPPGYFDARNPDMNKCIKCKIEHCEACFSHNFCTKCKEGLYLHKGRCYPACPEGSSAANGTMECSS

T7: hRSPO3 (Homo sapiens (Human), UniProt Q9BXY4)
T7 chain: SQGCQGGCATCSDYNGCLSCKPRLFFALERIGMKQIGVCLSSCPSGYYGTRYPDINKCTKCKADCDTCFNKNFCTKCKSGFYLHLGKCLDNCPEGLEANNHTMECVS

B1: mouse Rspo2 Fu1–Fu2 (mRspo2Fu1–Fu2, N37 or I39-G144), His10 (domain or fragment)
chain: T4 chain
B2: mouse Rspo2 Fu1–Fu2 (mRspo2Fu1–Fu2, N37 or I39-G144), His10 (domain or fragment)
chain: T4 chain
modifications: biotin at C-terminal BirA tag, immobilised; disulphide
B3: mouse Rspo4 Fu1–Fu2 (T29-Q136) (domain or fragment, UniProt Q8BJ73 29-136, looked up)
chain: TGLGGNCTGCVICSEENGCSTCQQRLFLFIRREGIRQYGKCVHDCPLGFFGIRGQEANRCKKCGATCESCFSQDFCIRCKRRFHLYKGKCLPSCPPGTLTHQSTRECQ
modifications: biotin at the C-terminal BirA recognition sequence (as immobilised ligand in Figure 4b)
notes: R-spondin 4, mouse, Fu1-Fu2, residues T29-Q136; also called mRspo4; mRspo4Fu1–Fu2
B4: human RNF43 ectodomain (hRNF43ecto, Q44-L188), biotinylated, immobilised for SPR, Q68DV7 K108N (protein)
chain: QKAIIRVIPLKMDPTGKLNLTLEGVFAGVAEITPAEGKLMQSHPLYLCNASDDDNLEPGFISIVNLESPRRAPRPCLSLASKARMAGERGASAVLFDITEDRAAAEQLQQPLGLTWPVVLIWGNDAEKLMEFVYKNQKAHVRIEL
B5: human RNF43 ectodomain (hRNF43ecto, Q44-L188), biotinylated, immobilised for SPR, Q68DV7 L82S (protein)
chain: B4 chain with L39S, N65K
B6: mouse ZNRF3 ectodomain (K53-L205), biotinylated, immobilised for SPR, Q5SSZ7 E92N; E94T (protein)
chain: T2 chain with E40N, E42T, T46M
B7: mZNRF3ecto S90C (spontaneously disulphide cross-linked dimer) (domain or fragment, mouse, UniProt Q5SSZ7 53-205, looked up)
chain: T2 chain with S38C, T46M
notes: ZNRF3 ectodomain, mouse; limits K53-L205 as stated for mZNRF3ecto; probably as m1; also called S90C variant of mZNRF3_(ecto); predimerized mZNRF3_(ecto) S90C
B8: mouse ZNRF3 ectodomain (mZNRF3ecto, K53-L205) (domain or fragment, UniProt Q5SSZ7 53-205, looked up)
chain: T2 chain with T46M
notes: ZNRF3 ectodomain, mouse, residues K53-L205; pHLsec vector; used for crystals, ultracentrifugation and as SPR analyte; also called wt mZNRF3_(ecto); source: HEK293T, secreted, purified (HisTrap, gel filtration)
B9: mouse ZNRF3 ectodomain (K53-L205), biotinylated, immobilised for SPR, Q5SSZ7 S90C (protein)
chain: T2 chain with S38C, T46M
B10: human Rspo3 Fu1–Fu2 (R32-H147), immobilised for SPR (domain or fragment, UniProt Q9BXY4 32-147, looked up)
chain: RMHPNVSQGCQGGCATCSDYNGCLSCKPRLFFALERIGMKQIGVCLSSCPSGYYGTRYPDINKCTKCKADCDTCFNKNFCTKCKSGFYLHLGKCLDNCPEGLEANNHTMECVSIVH
modifications: biotin at the C-terminal BirA recognition sequence
notes: R-spondin 3, human, Fu1-Fu2, residues R32-H147; also called hRspo3
B11: mR42 (protein)
chain: TGLGGNCTGCVICSEENGCSTCQQRLFLFIRREGIRQYGKCVHDCPLGFFGIRGQEANRCKKCRIENCDSCFSKDFCTKCKVGFYLHRGRCFDECPDGFAPLDETMECVEG
modifications: Chimera read from its name as Rspo4 Fu1 + Rspo2 Fu2. Junction not printed: set by convention after the residue aligned with Rspo2 R95. Disulphides
B12: human Rspo1 Fu1–Fu2 (I32-S143), immobilised for SPR (domain or fragment, UniProt Q2MKA7 32-143, looked up)
chain: ISAEGSQACAKGCELCSEVNGCLKCSPKLFILLERNDIRQVGVCLPSCPPGYFDARNPDMNKCIKCKIEHCEACFSHNFCTKCKEGLYLHKGRCYPACPEGSSAANGTMECS
modifications: biotin at the C-terminal BirA recognition sequence
notes: R-spondin 1, human, Fu1-Fu2, residues I32-S143; also called hRspo1

Tests used:
[1] = target: Rspo Fu1–Fu2 chimera: Fu1 of Rspo4 with Fu2 of a 'strong' Rspo (mouse | not stated); assay: SPR; binding of Rspo Fu1–Fu2 chimeras to ZNRF3ecto
[2] = target: T1, human LGR5 ectodomain (hLGR5ecto, …); assay: SPR
mZNRF3ecto M98T = target: T2, mZNRF3ecto M98T; assay: SPR
[3] = target: B8; assay: SPR; mZNRF3ecto as analyte, biotinylated Rspo variants immobilised on streptavidin; equilibrium, 25 °C, 10 mM HEPES/NaOH pH 7.5, 150 mM NaCl, 0.005% Tween20; Biacore T200; conditions: both partners purified
[4] = target: T3, human LGR5 ectodomain (hLGR5ecto, …); assay: SPR; binding of Rspo Fu1–Fu2 proteins and chimeras to hLGR5ecto; single dilution series; conditions: both partners purified
[5] = target: T4, mouse Rspo2 Fu1–Fu2 (mRspo2Fu1–Fu2, N37 …); assay: SPR; conditions: chain shown with the change
[6] = target: T5, preformed hLGR5ecto,lr × mRspo2 Fu1–Fu2 …; assay: SPR; conditions: chain shown with the change
[7] = target: the molecule itself; assay: crystal structure; X-ray, sitting drop vapour diffusion; apo proteins and complexes in several crystal forms
[8] = target: T3, human LGR5 ectodomain (hLGR5ecto, …); assay: SPR; hLGR5ecto (R32-G557) immobilised; injections of 10 μM solutions step by step, and saturation with the preformed mZNRF3ecto × mRSPO2 complex (single dilution series); conditions: both partners purified
hRSPO1 = target: T6, hRSPO1; assay: SPR equilibrium, RSPO Fu1-Fu2 immobilised
hRSPO3 = target: T7, hRSPO3; assay: SPR equilibrium, RSPO Fu1-Fu2 immobilised

Kd [1]: 3600 nM
Molecule: mouse ZNRF3 ectodomain (mZNRF3ecto, K53-L205) (from UniProt Q5SSZ7 53-205) (domain or fragment)

Molecule: B1
Kd [2]: 14 nM

Molecule: B2
Kd (mZNRF3ecto M98T): 1500 nM

Molecule: B3
Kd [2]: 73 nM
Kd [3]: 300000 nM
binding result [4]: binds

Molecule: B4
Kd [5]: 62 nM

Molecule: B5
Kd [5]: 78 nM

Molecule: B6
Kd [6]: 3500 nM

Molecule: B7
binding result [7]: binds

Molecule: B8
binding result [8]: binds
Kd (hRSPO1): 6800 nM
Kd (hRSPO3): 60 nM

Molecule: B9
Kd [6]: 206 nM

Molecule: B10
binding result [3]: binds

Molecule: B11
Kd [2]: 240 nM

Molecule: B12
binding result [3]: binds
